± gives the standard deviation of the averaged measurements.
Tested on: Saccharomyces cerevisiae
Assay: protein stability index of tFT-peptide fusion (C-terminal peptide) (PSI (0-1 scale)); higher = more stable (slower turnover)
Conditions: genetic background: wild type; temperature: 30 C
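Also: PSI is a weighted mean of sequencing reads over stability bins, variants kept only with over 10 reads, mCherry proximal and sfGFP distal, peptide attached via GGGS linker.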

| Sequence | protein stability index |
| --- | --- |
| PSQHVHTSPLYS | 0.695 ± 0.022 |
| PSQPYPSSQYIL | 0.73 ± 0.047 |
| PSQRHQRPHREP | 0.657 ± 0.052 |
| PSRASGPYPRLS | 0.701 ± 0.019 |
| PSRDPPAGPRAR | 0.684 ± 0.048 |
| PSRLSLLWVNPP | 0.8 ± 0.081 |
| PSRPRPRRRRQA | 0.751 ± 0.073 |
| PSRRAPQSRPSQ | 0.733 ± 0.098 |
| PSRRHGFRLILT | 0.679 ± 0.019 |
| PSRRPLPHPPPP | 0.654 ± 0.045 |
| PSRVPTPLPHFT | 0.737 ± 0.049 |
| PSSCLPAHLRPP | 0.605 ± 0.013 |
| PSSCSLLPLCLG | 0.663 ± 0.065 |
| PSSHHGNQTTRK | 0.826 ± 0.14 |
| PSSLPSTPPSPP | 0.745 ± 0.019 |
| PSSPLPLSVPPL | 0.655 ± 0.11 |
| PSSPPAPLAPHS | 0.731 ± 0.067 |
| PSSPPLPLPALP | 0.723 ± 0.04 |
| PSSRFLFFCSFF | 0.677 ± 0.033 |
| PSSSLAPPPGRL | 0.572 ± 0.038 |
| PSTDARRQRLRR | 0.721 ± 0.049 |
| PSTLLPSLRFPP | 0.654 ± 0.056 |
| PSTPPGPPPASH | 0.758 ± 0.011 |
| PSTPSPSCAPPS | 0.7087 ± 0.0017 |
| PSTSCQRLLTLT | 0.639 ± 0.018 |
| PSTVSPFRPPIT | 0.711 ± 0.039 |

| Sequence | protein stability index |
| --- | --- |
| PSVLPPPSPASY | 0.668 ± 0.094 |
| PTFVQGVVLGRG | 0.702 ± 0.086 |
| PTLPACFCPPAP | 0.639 ± 0.097 |
| PTLSSPHPPNNY | 0.689 ± 0.021 |
| PTMGRRPGRGGA | 0.6987 ± 0.00073 |
| PTPPPALPPPPL | 0.6994 ± 0.0054 |
| PTPPPQPTPHTP | 0.705 ± 0.035 |
| PTPPPRPPLSPP | 0.692 ± 0.046 |
| PTPPRPGPIITF | 0.699 ± 0.031 |
| PTPTAPEPIHPS | 0.61 ± 0.0025 |
| PTPTNLLPPRKY | 0.6504 ± 0.0044 |
| PTRPAMILPNRY | 0.698 ± 0.049 |
| PTRPPRPRAGPR | 0.742 ± 0.0077 |
| PTSFAPSPPLPR | 0.741 ± 0.025 |
| PTTLTTPTPPHR | 0.7161 ± 0.0022 |
| PTYTPAFPPVSS | 0.699 ± 0.018 |
| PVDGGAGPEVKG | 0.641 ± 0.1 |
| PVETVRCCLACP | 0.64643 ± 0.00047 |
| PVFPPTPLSPRP | 0.571 ± 0.077 |
| PVGDWPRGKGAD | 0.684 ± 0.13 |
| PVLYPPPPFPPY | 0.747 ± 0.0095 |
| PVPIPCPIPPPT | 0.703 ± 0.0062 |
| PVPLLPLSFSLL | 0.736 ± 0.064 |
| PVPNPPPAPRSS | 0.698 ± 0.062 |
| PVPPPPCPPLPP | 0.683 ± 0.024 |
| PVPRNRQRWREP | 0.663 ± 0.017 |

| Sequence | protein stability index |
| --- | --- |
| PVPRVPLYFPLV | 0.675 ± 0.017 |
| PVRLGAGGGCRP | 0.693 ± 0.02 |
| PVRSPPPLPSPP | 0.653 ± 0.037 |
| PVSSFQHSLPWL | 0.708 ± 0.03 |
| PVSSLHFPLPGF | 0.677 ± 0.027 |
| PVSSPLVFLLSI | 0.625 ± 0.045 |
| PVSTINLNIQST | 0.836 ± 0.087 |
| PVTMWAGGKYYV | 0.718 ± 0.088 |
| PVWLLASSLADL | 0.722 ± 0.039 |
| PYSLRSTASSFP | 0.63 ± 0.12 |
| PYSPPAHLLSLL | 0.878 ± 0.061 |
| QASFPRPSGRAS | 0.7026 ± 0.0054 |
| QAVPRAAHLHPL | 0.66 ± 0.11 |
| QCAPVFIAVCRL | 0.681 ± 0.14 |
| QCIQQNVSSSRA | 0.646 ± 0.014 |
| QCLFPVAYYLTP | 0.657 ± 0.0097 |
| QDHIGSTEGYKH | 0.663 ± 0.074 |
| QDSANLSPSFPF | 0.724 ± 0.048 |
| QEESRARKGTQT | 0.627 ± 0.034 |
| QEKKKVNKKENK | 0.737 ± 0.045 |
| QEKSLSHTQRYR | 0.762 ± 0.072 |
| QFERSVFLANAL | 0.679 ± 0.023 |
| QFRRKGMITECK | 0.7161 ± 0.0029 |
| QFSPPLSLAPLP | 0.783 ± 0.05 |
| QFSRSFHSLPPT | 0.683 ± 0.022 |
| QFWVICTRGSEN | 0.694 ± 0.029 |

| Sequence | protein stability index |
| --- | --- |
| QGGGGGGRSGWR | 0.6854 ± 0.0061 |
| QGRCHSRARMTP | 0.731 ± 0.046 |
| QGSWLRSVNLEY | 0.617 ± 0.092 |
| QGTCSQSIEAHF | 0.706 ± 0.14 |
| QHIKNARKKKGE | 0.657 ± 0.0073 |
| QIEQQKHKQPLI | 0.6859 ± 0.0024 |
| QIPEYGGQGVNV | 0.6935 ± 0.0047 |
| QIYKISKKKKQK | 0.676 ± 0.055 |
| QIYRMKNRYNKS | 0.7 ± 0.038 |
| QKATRHRTRPRR | 0.688 ± 0.12 |
| QKEGGRENETRT | 0.6906 ± 0.0053 |
| QKHGARISSQKK | 0.703 ± 0.012 |
| QKKIKKPKSKKH | 0.736 ± 0.031 |
| QKKKKTTVKKRQ | 0.671 ± 0.021 |
| QKKPEMLNKKSY | 0.639 ± 0.015 |
| QKKQKIKYRSKN | 0.714 ± 0.053 |
| QKNKKKKQKKEK | 0.717 ± 0.05 |
| QKPVQGICQEAN | 0.628 ± 0.035 |
| QKTSPWRQRGRL | 0.778 ± 0.047 |
| QLDPLRPASEFA | 0.602 ± 0.043 |
| QLILVGYCMLSV | 0.5612 ± 0.0017 |
| QLLCMSEPFVRE | 0.699 ± 0.057 |
| QNEKSKQCIKQT | 0.6759 ± 0.0019 |

From the supplement of paper PMC10724198
